The source of these data is patent publication US20190290758A1.

The target of the assay is ELAVL4 1-117 with the canonical isoAsp-prone sites N7, N15 and D36 mutated (human).

Take “recombinant rat repair enzyme protein-L-isoaspartate O-methyltransferase (PIMT) (from UniProt P22062)”: the on-blot PIMT-catalyzed methylation with 3H-S-adenosyl methionine was found to be 25%.
